Assay results reported in patent US20100291540A1.

How the values were obtained:
[1] = molecular target: starch binding domain derived from Rhizopus oryzae glucoamylase (RoSBD) (Rhizopus oryzae) (UniProt P07683); assay: competition sandwich ELISA, 250 nM gp140 premixed with panel, RoSBD-coated plate; competes with the panel's HIV antigen
[2] = molecular target: starch binding domain derived from Aspergillus niger glucoamylase (AnSBD) (Aspergillus niger) (UniProt P69328); assay: competition sandwich ELISA, 250 nM gp140 premixed with panel, AnSBD-coated plate; competes with the panel's HIV antigen

HIV1 gp140 antigen
inhibition rate [1]: 42.9%
inhibition rate [2]: 40.1%
